Laboratory results taken from patent US7662583B2, “Bioreactor containing cells expressing glycosyltransferase nucleic acids isolatable from Arabidopsis” (The University of York, priority 2003, dated 2010).

B1: UGT73B3: Arabidopsis recombinant glycosyltransferase (protein, UniProt Q8W491 1-481, looked up)
UDP-glycosyltransferase 73B3: MSSDPHRKLHVVFFPFMAYGHMIPTLDMAKLFSSRGAKSTILTTPLNSKIFQKPIERFKNLNPSFEIDIQIFDFPCVDLGLPEGCENVDFFTSNNNDDRQYLTLKFFKSTRFFKDQLEKLLETTRPDCLIADMFFPWATEAAEKFNVPRLVFHGTGYFSLCSEYCIRVHNPQNIVASRYEPFVIPDLPGNIVITQEQIADRDEESEMGKFMIEVKESDVKSSGVIVNSFYELEPDYADFYKSVVLKRAWHIGPLSVYNRGFEEKAERGKKASINEVECLKWLDSKKPDSVIYISFGSVACFKNEQLFEIAAGLETSGANFIWVVRKNIGIEKEEWLPEGFEERVKGKGMIIRGWAPQVLILDHQATCGFVTHCGWNSLLEGVAAGLPMVTWPVAAEQFYNEKLVTQVLRTGVSVGAKKNVRTTGDFISREKVVKAVREVLVGEEADERRERAKKLAEMAKAAVEGGSSFNDLNSFIEEFTS

Assays:
[1] = Solubility of quercetin under buffer conditions used; type: physicochemical; conditions: buffer conditions used in the fermenter
Method: In order to explore the potential of the whole-cell biocatalysts for large-scale production of glucosides in the absence of added UDP-glucose, transformed bacterial cells were cultured in a fermenter. This process enabled conditions to be controlled tightly throughout the production cycle and a direct comparison to be made of the efficiency of conversion of whole-cell UGT biocatalysis in a simple culture flask and an optimised fermenter system. UGT73B3 was chosen for the analysis, since preliminary experiments (Table 2) had shown formation of a single product, the 3-O-glucoside, at levels of 8.96 μg/ml following 24 h incubation. […] The Figure also illustrates the final level of glucoside was much higher than the soluble aglycone at time 0 h.

[2] = UGT enzyme reaction with quercetin (recombinant UGTs, HPLC); type: biochemical, Arabidopsis; conditions: 0.5 mM quercetin, 5 mM UDP-glucose, 30° C.
Summary of the method: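 Recombinant Arabidopsis UGTs (2 μg) incubated with 0.5 mM quercetin and 5 mM UDP-glucose in 100 mM Tris-HCl pH 7.0 at 30 °C for 1 h. Quercetin glucosides separated from aglycone by reverse-phase C18 HPLC (acetonitrile gradient, 0.1% TFA), detected at 370 nm.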

[3] = Whole-cell biocatalyst assay, E. coli expressing UGT in culture medium; type: cell-based; conditions: E. coli, 2x YT medium, 0.1 mM IPTG, 0.1 mM quercetin, 24 h, no added UDP-glucose
Method: FIG. 14 Whole-cell biocatalyst assay using UGT71C1. E. coli cells expressing recombinant were used in the biocatalyst assay. After incubation with 0.1 mM quercetin and 0.1 mM IPTG, cells were collected by centrifugation, extracted with 80% methanol and both the cell extracts (pellet) and culture medium (supernatant) were analysed using HPLC. (A) Changes in the combined amounts of aglycone/glucoside over a time-course of 0-48 h. (B) Changes in the level of different glucosides and aglycone in the culture medium over the same time-course.
Using the foundation established in the preceding example, we went on to investigate the potential of E. coli expressing plant UGTs as whole-cell biocatalysts to synthesise glucosides of quercetin. In the first instance, we used E. coli grown in 75 ml of standard culture medium. […] Table 2 describes results in which 7 different UGTs are expressed in E. coli and the identity and quantity of different glucosides recovered in the medium were analysed by HPLC. […] There was considerable variation in the level of different glucosides synthesised by the cells, although even under these non-optimised conditions, each of the four monoglucosides and two di-O-glucosides could be formed.

[4] = Whole-cell bioreactor assay in fermentor system; type: cell-based, E. coli
Method: A 6 L glass autoclavable fermentor system (Applikon Biotechnology Ltd.) was used for large-scale analysis of UGT whole-cell biocatalysts. E. coli BL21 overnight culture (40 ml) expressing UGT was transferred into the fermentor system containing 2 L of LB medium previously equilibrated at 30° C., pH 7.4. The dissolved O2 level was maintained at 95% for 1 h and was decreased to 60% throughout the remaining process. When the culture reached an optical density at 0.2, the temperature was lowered to 20° C. 0.1 mM of isopropyl-1-thio-β-D-galactopyranoside and 2 g of quercetin were added after the bacterial culture reached an optical density at 0.6. Samples were harvested at intervals and the bacterial cells were removed by centrifugation. The resulting supernatant fractions (culture medium) were analysed with HPLC.
In order to explore the potential of the whole-cell biocatalysts for large-scale production of glucosides in the absence of added UDP-glucose, transformed bacterial cells were cultured in a fermenter. This process enabled conditions to be controlled tightly throughout the production cycle and a direct comparison to be made of the efficiency of conversion of whole-cell UGT biocatalysis in a simple culture flask and an optimised fermenter system. […]

Row | Molecule | solubility [1] | Specific activity (nkat/mg protein) 3-O-glc ([2]; quercetin glucosylated at 3-OH) [nkat/mg protein] | Specific activity (nkat/mg protein) 3′-O-glc ([2]; quercetin glucosylated at 3′-OH) | Specific activity (nkat/mg protein) 4′-O-glc ([2]; quercetin glucosylated at 4′-OH) | Specific activity (nkat/mg protein) 7-O-glc ([2]; quercetin glucosylated at 7-OH) | Culture medium (μg/ml in supernatant) 3-O-glc [3] [µg/mL] | yield of 3-O-glucoside, fermenter versus culture flask ([4]; 99.3 μg/ml at 20 h versus 8.96 μg/ml at 24 h) [fold] | yield of 3-O-glucoside in the culture ([4]; fermenter system, 20 h) [µg/mL]
1 | O=c1c(O)c(-c2ccc(O)c(O)c2)oc2cc(O)cc(O)c12 [Quercetin, quercetin] | relatively insoluble | – | – | – | – | – | – | –
2 | B1 | – | 1.57 | — (Activity lower than 0.02 nkat/mg protein has been considered as trace activity and is not shown in the Table.) | — (Activity lower than 0.02 nkat/mg protein has been considered as trace activity and is not shown in the Table.) | — (Activity lower than 0.02 nkat/mg protein has been considered as trace activity and is not shown in the Table.) | 8.96 | 10 | 99.3
